The text below walks through data of PMC3489907, “The Human Homolog of Escherichia coli Endonuclease V Is a Nucleolar Protein with Affinity for Branched DNA Structures”.

In the data set the target is T1, ENDOV WT (human endonuclease V, exon 10 isoform) (Homo sapiens, UniProt Q8N8Q3 1-282).
T1 sequence: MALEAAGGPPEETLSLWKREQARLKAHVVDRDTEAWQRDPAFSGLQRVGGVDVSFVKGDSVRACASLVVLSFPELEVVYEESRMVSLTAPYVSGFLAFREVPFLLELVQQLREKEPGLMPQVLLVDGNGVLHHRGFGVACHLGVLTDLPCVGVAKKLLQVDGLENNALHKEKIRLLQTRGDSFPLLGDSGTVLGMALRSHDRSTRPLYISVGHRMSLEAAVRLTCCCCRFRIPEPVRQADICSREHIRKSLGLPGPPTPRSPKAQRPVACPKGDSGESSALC
Put plainly: EMSA; 5 mM Ca2+; EMSA: 10 fmol DNA in 10 µl, 5 ng pQE31 competitor DNA, 5 mM CaCl2, 10 mM HEPES-KOH pH 7.4, 1 mM DTT, 20% glycerol, 4°C 15 min; 10% native PAGE with 5 mM CaCl2 on ice; ENDOV 1.6-6.4 pmol, E. coli endoV 2-8 pmol. Particulars: protein: recombinant, tags: none (His6-MBP removed with TEV). Background: A gel shift assay detects complexes by their altered migration in electrophoresis.

B1: Holliday junction (16+17*+18+19) (structured_DNA)
DNA 1: CCGCTACCAGTGATCACCAATGGATTGCTAGGACATCTTTGCCCACCTGCAGGTTCACCC
DNA 2: TGGGTGAACCTGCAGGTGGGCAAAGATGTCCTAGCAATCCATTGTCTATGACGTCAAGCT
DNA 3: GAGCTTGACGTCATAGACAATGGATTGCTAGGACATCTTTGCCGTCTTGTCAATATCGGC
DNA 4: TGCCGATATTGACAAGACGGCAAAGATGTCCTAGCAATCCATTGGTGATCACTGGTAGCGG
As to B1, under “label: 5'-32P on strand 2, four-way junction 1:2 2:3 3:4 4:1”, the binding result was “binds”.

B2: 5'-flap (10+12+13*) (structured_DNA)
DNA 1: GGATACGTAACAACGCTTATGCATCGCCGCCGCTACATCCCTGAGCTGAC
DNA 2: GTCAGCTCAGGGATGTAGCGGCGG
DNA 3: TGTGTTCGATCTCGATCAGAATGACGATGCATAAGCGTTGTTACGTATCC
For the molecule B2, the binding result (label: 5'-32P on strand 3, 5'-flap, 1:2 1:3, 5' part of strand 3 unpaired (24 nt)) was “binds”.

B3: 3'-flap (10+11+14*) (structured_DNA)
DNA 1: GGATACGTAACAACGCTTATGCATCGCCGCCGCTACATCCCTGAGCTGAC
DNA 2: ATGCATAAGCGTTGTTACGTATCC
DNA 3: GTCAGCTCAGGGATGTAGCGGCGGAGTCATTCTGATCGAGATCGAACACA
With B3, the binding result (label: 5'-32P on strand 3, 3'-flap, 1:2 1:3, 3' part of strand 3 unpaired) is “binds”.

B4: fork (10+11+14*+15) (structured_DNA)
DNA 1: GGATACGTAACAACGCTTATGCATCGCCGCCGCTACATCCCTGAGCTGAC
DNA 2: ATGCATAAGCGTTGTTACGTATCC
DNA 3: GTCAGCTCAGGGATGTAGCGGCGGAGTCATTCTGATCGAGATCGAACACA
DNA 4: TGTGTTCGATCTCGATCAGAATGA
Turning to B4, under “label: 5'-32P on strand 3, fork 1:2 1:3 3:4”, the binding result is “binds”.

B5: pseudo-Y (10*+13) (structured_DNA)
DNA 1: GGATACGTAACAACGCTTATGCATCGCCGCCGCTACATCCCTGAGCTGAC
DNA 2: TGTGTTCGATCTCGATCAGAATGACGATGCATAAGCGTTGTTACGTATCC
Take B5: the binding result (label: 5'-32P on strand 1, splayed duplex 1:2, 3' part of strand 1 and 5' part of strand 2 unpaired (24 nt each)) is given as “binds”.

B6: 3-way junction (10*+13+14) (structured_DNA)
DNA 1: GGATACGTAACAACGCTTATGCATCGCCGCCGCTACATCCCTGAGCTGAC
DNA 2: TGTGTTCGATCTCGATCAGAATGACGATGCATAAGCGTTGTTACGTATCC
DNA 3: GTCAGCTCAGGGATGTAGCGGCGGAGTCATTCTGATCGAGATCGAACACA
Regarding B6, the binding result (label: 5'-32P on strand 1, three-way junction 1:2 1:3 2:3) is given as “binds”.
